The source of these data is PMC10786121, “Rab29-dependent asymmetrical activation of leucine-rich repeat kinase 2” (Science (New York, N.Y.), 2023).

Assay [1] has as its target leucine-rich repeat kinase 2 (LRRK2) (UniProt Q5S007). In words: cryo-EM structure; complex reconstituted by mixing LRRK2, Rab29EM, GTP analog (GppNHp), ATP and Mg2+; three oligomeric assemblies (monomer, dimer, tetramer); C2 symmetry imposed for dimer and tetramer. To be noted: remark: other sources report otherwise.
Assay [2] shares this target. In words: cryo-EM 2D classification; Rab29 T71A/S72A–LRRK2 complex; 2D classification performed with cross-correlation (fig. S9E). To be noted: remark: other sources report otherwise.
The target in assay [3] is T1, leucine-rich repeat kinase 2 (LRRK2) (UniProt Q5S007 1-2527).
T1 construct: leucine-rich repeat kinase 2 (LRRK2), wild type; domains ARM, ANK, LRR, ROC, COR, KIN, WD40; Near full-length LRRK2^peri could be modelled in the tetramer; Seen as monomer, dimer and tetramer in complex with Rab29; Also stands for the WT LRRK2 transfected into HEK293 cells in the functional rows; also called WT LRRK2; LRRK2^peri
In words: cryo-EM structure; complex reconstituted by mixing LRRK2, Rab29EM, GTP analog (GppNHp), ATP and Mg2+; three oligomeric assemblies (monomer, dimer, tetramer); C2 symmetry imposed for dimer and tetramer. To be noted: both partners purified.

T1 sequence (Q5S007 whole entry): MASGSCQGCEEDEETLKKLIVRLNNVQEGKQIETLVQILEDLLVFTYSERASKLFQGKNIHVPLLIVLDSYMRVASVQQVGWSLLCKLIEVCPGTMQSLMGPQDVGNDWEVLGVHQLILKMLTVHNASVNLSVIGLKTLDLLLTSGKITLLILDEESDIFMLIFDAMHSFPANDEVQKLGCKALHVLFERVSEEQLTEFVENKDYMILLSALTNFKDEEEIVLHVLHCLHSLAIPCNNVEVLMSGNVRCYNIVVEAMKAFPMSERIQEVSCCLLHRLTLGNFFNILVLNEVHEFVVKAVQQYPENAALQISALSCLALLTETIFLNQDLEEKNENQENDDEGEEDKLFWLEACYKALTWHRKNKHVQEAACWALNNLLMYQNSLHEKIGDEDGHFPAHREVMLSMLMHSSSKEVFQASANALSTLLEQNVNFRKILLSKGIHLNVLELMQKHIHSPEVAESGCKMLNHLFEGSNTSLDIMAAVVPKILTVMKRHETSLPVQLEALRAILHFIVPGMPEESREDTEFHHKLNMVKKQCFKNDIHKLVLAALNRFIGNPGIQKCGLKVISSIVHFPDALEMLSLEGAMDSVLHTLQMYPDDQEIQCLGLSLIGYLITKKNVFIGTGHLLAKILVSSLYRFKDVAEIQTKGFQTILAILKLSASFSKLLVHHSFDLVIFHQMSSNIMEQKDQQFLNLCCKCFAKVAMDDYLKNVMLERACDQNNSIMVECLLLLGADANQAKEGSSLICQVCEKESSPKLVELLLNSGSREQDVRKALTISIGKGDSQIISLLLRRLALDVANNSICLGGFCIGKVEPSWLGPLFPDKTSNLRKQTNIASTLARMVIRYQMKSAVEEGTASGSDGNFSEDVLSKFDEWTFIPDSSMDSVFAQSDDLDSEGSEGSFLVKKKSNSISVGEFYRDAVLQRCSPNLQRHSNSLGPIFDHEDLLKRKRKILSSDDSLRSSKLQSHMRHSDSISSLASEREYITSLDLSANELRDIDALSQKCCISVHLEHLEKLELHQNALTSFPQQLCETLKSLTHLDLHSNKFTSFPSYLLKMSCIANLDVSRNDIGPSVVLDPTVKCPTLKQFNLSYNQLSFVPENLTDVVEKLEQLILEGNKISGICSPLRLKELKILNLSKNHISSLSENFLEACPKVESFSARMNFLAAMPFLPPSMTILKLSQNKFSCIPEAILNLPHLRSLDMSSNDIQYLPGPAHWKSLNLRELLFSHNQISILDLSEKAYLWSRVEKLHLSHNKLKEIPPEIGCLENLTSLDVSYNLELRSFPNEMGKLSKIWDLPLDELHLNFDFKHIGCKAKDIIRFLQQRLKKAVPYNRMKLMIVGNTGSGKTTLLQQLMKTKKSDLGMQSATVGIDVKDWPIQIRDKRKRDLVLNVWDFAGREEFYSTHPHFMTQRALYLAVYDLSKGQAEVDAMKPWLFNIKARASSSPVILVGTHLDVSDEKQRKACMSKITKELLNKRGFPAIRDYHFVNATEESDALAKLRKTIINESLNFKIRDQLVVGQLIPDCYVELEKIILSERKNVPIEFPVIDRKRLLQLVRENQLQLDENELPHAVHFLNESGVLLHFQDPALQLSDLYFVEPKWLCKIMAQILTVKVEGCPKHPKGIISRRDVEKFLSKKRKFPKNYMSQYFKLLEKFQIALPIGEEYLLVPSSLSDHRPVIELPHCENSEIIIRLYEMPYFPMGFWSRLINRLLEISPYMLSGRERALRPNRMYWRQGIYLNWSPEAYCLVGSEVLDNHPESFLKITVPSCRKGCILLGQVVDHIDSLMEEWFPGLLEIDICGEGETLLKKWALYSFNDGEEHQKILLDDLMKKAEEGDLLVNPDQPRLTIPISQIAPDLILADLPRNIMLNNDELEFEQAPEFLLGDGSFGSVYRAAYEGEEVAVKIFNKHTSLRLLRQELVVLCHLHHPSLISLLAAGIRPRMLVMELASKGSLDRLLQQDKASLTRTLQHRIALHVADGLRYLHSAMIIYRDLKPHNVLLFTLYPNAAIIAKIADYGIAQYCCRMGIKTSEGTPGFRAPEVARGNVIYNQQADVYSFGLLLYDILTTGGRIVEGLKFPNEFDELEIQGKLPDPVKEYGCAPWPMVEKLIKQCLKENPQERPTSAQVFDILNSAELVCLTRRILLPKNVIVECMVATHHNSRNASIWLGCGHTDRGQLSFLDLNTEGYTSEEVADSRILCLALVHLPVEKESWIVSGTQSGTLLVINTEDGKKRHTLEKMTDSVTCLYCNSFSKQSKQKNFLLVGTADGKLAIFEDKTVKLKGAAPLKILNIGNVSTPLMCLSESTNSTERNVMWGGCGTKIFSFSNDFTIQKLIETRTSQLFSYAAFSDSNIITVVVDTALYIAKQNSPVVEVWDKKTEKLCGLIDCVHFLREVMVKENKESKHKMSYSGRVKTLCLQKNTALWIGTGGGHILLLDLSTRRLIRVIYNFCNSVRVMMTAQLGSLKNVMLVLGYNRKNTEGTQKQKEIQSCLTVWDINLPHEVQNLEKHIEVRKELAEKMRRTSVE

As to “leucine-rich repeat kinase 2 (LRRK2), Q5S007 1-2527”, the stoichiometry N in assay [1] and in assay [2] was 4 each time.

B1: Rab29EM (Rab29 Q67L, T71A, S72A) (natural protein)
chain: MGSRDHLFKVLVVGDAAVGKTSLVQRYSQDSFSKHYKSTVGVDFALKVLQWSDYEIVRLQLWDIAGLERFAAMTRLYYRDASACVIMFDVTNATTFSNSQRWKQDLDSKLTLPNGEPVPCLLLANKCDLSPWAVSRDQIDRFSKENGFTGWTETSVKENKNINEAMRVLIEKMMRNS
notes: Rab29, a Rab GTPase encoded in the PARK16 locus, with three point mutations; constructs are in the supplementary Materials and Methods; also called Rab29^peri
Consider B1, for which the “stoichiometry N” value in assay [3] is 1.
